Data as given in the nanobody polyreactivity screen of Harvey et al. (2022).

Test: yeast display, Sf9 membrane polyspecificity reagent, FACS + sequencing; frameworks hold sequencing errors
In short: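 Genes from sorted yeast were amplified by colony PCR, read by MiSeq 2 × 250 sequencing and filtered on CDR length. These cells carried a synthetic nanobody library in Saccharomyces cerevisiae BJ5465 and were sorted by FACS into low and high (top ~1%) gates on anti-HA and streptavidin fluorescence. Polyreactivity is labelled according to the gate of origin.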

Sequence	polyreactivity (PSR sort gate)
QVQLVESGGGLVQAGGSLRLSCAASGFIFGYYAMGWYRQAPGKERELVAAINKNGGSTYYADSVKGRFTISRDNAKNTVYLQMNSLKPEDTAVYYCAARARGYAWTYDYWGQGTQVTVSS	high polyreactivity
QVQLVESGGGLVQAGGSLRLSCAATGRTFTYYALGGYRQAPGKQRELVAAISTSGGSTYYADSVKGRFTISRDNAKNTVYLQMNSLKPEDTAVYYCAASPYLRFLYGGFGYWGLGTQVTVSS	high polyreactivity
QVQLVESGGGLVQAGGSLRLSCAASGRTFGYYAMGWSRQAPGKERELVAAITYSGGRTRYADSVKGRFTISRDNAKNTVYLQMNSLKPEDTAVYYCNRVIPTQSLRDYYWGQGTQVTVSS	high polyreactivity
QVQLVESGGGLVQAGGSLRLSCAASGITFYANAMGWYRQAPGKERELVATISYRGGSTYYADSVKGRFTISRDNAKNTVYLQMNSLKPEDTAVYYCAARRRRTSNTRVEHNYWGQGTQVTVSS	high polyreactivity
QVQLVESGGGLVQAGGSLRLSCAASGTFSPYAMGWYRQAPGKESELVAVITSNTGRTYADSVKGRFTISRDNAKKTVYLQMNSLKPEDTAVYYCAARSTYRHWYRTGSRFDYWGQGTQVTVSS	low polyreactivity
QVQLVESGVGLVQAGGSLRLSCAASGFTFRRYAMGWYRQAPGKERELVAAITSSGGNTYYADSVKGRFTISRDNAKNTVYLQMNSLKPEDTAVYYCAKRAFYSSSYDYWGQGTQVSVSS	high polyreactivity
QVQLVESGGGLVQAGGSLRLSCAASGFTFAGNAMGWYRKAPGKERELVAGISRRGGNTYYADSVKGRFTISRDIAKNTVYLQMNSLKPEDTAVYYCARYSSSYWGQGTQVTVSS	high polyreactivity
QVQLVESGGGLVQAGGSLRLICAASGYTFDYNAMGWYRQAPGKEREFVAAIDWSGGNTYYADSVKGRFTISRDNAKNTVYLQMNSLKPEDTAVYYCNTVTEAVTRRYDYWGQGTQVTVSS	low polyreactivity
QVQLVESGGGLVQAGGSLRLSCAASGITFGDYAMGWNRQAPGKERELVAGINWSGDGTYYADSVKGRFTISRDNAKITVYLQMYSLKPEDTAVYYCAAETFYDYGGYDYWGQVTQVTVSS	low polyreactivity
QVQLVESGGGLVQAGGSLRLSCAASGSIFLWNAMGGYRQAPGKERDLVAAISSSGGSTYYADSVKGRFTISRDNAKNTVYLQMNSLKPEDTAVYYCAAVSRSYYNSYNYWGQGTQVTVSS	high polyreactivity
QVQLVESGGGLVQAGGSLRLSCAASGSTFRIYAMGWYRQAPGKERELVASISSGGRTYYADSVKGRFTISRDNAKNTVYLQMNSLKPEDTAVYYCNARHYYIWWRSPTRTAMNYWGQGTQVTVSS	high polyreactivity
QVQLVESGGGLVQAGGSLRLSCAASGSNFIGYAMGWYRQEPGKERELVAAISNSGGRTYYADSVKGRFTISRDNAKNTVYLQMNSLKPEDTAVYYCNVAYRIPYRMDYWGQGTQVTVSS	high polyreactivity
QVQLVESGGGLVQAGGSLRLSCAATGSLFLPYGMGWYSQAPGKERELVAAFSRGGGSTYYADSVKGRFTISRDNAKNTVYLQMNSLKPEDTAVYYCAVDNLKSRAQSLDGFDYWGQGTQVTVSS	high polyreactivity
QVHLVESGGGLVQAGGSLRLSCAASGSTFLANTMGWYRQAPGKERELVAAITRRGGSTRYADSVKGRFTISRDNAKNTVFLEMNSLKPEDTAVYYCAAPWFRDTRGYSLYDYWGQGTQVTVSS	high polyreactivity
QVQLVESGGGLVQAGGSLRLSCAASGSTFTPNARGSYRQAPGKERELVAAINYLGGSTYYADSVKGRFTISRDNAKNTVYVQMNSLKPEDTAVYYCARRQYFRGQRYDYWGQGTQVTVSS	high polyreactivity
QVQLVESGGGLVQAGGSLRLSCAASGFIFSYYAMGWYRQAPGKERELVATITRSGGRTYYADSVKGRFTISRDNAKNTVYLQMNSLKPEDTAVYYCAADYYYKDDSWGQGTQVTVSS	high polyreactivity

Sequence	polyreactivity (PSR sort gate)
QVKLVESGGGLVQAGGRLRLSCAASGSIFLLYPMGWYRQAPGKERELVAAISSGGSTYADSVKGRFTISRDNAKNTVYLLLNSLKPADTAVYYGAKVGGWYDPYTYGYSEYGYWGNGTQVTVSS	low polyreactivity
QVQLVESGGGLVQAGGSLRLSCAASGLIFGSNAMGWYRQAPGKERELVAGISGSGEHYVLRRSVKGRVTISRDNAKNTVYVPMNSLKPEDTAVYYCATYSQSSKGPAGYDYWGQGTHVTVSS	high polyreactivity
QDQLVESCGGLVQARGSLRLSCAASGFTFRYNAMGWYRQAPGKERELVAAITGSTGTTYYADSVKGRFTISRDNAKNTVYLQMNSLKPEDTAVYYCAATFRDQHGSLYGYWGQGSQVTVSS	high polyreactivity
QVQLVESGGGLVQAGGSLRLSCAASGFIFYSNAMGWYRQEPGKERELLADINRGGTSTYYADSVKGRFTISRDNAKNTVYLQMNSLKPEDTAVYYCNAGLRYRSRLWNIYWYDYWGQGTQVTVSS	high polyreactivity
QVQLVESGGGLVQAGGSLRLSCAASGLISESYAMGWYRPAPGKERELVAAISSGGSTYYADSVKGRFTISRDNAKNTVYLQMNSLKPEDTAVYYCNASGYKYTYGHAYYYAVDYWGQGTQVTVSS	low polyreactivity
QVQLVESGGGLVQAGGILRLSCAPSGRIFKYYGMGWYRQAPGKERELVAAIYRGSSTNYAHSVKGRFTISRDNAKNTVYLQMNSLKPEDTAVYYCAKVGWSRRYYYWGQGTQVTVSS	high polyreactivity
QVQLVESGGGLVQAGGSLRLSCAASGRTFGNNAMGWYRQAPGKERELVAAISRSGGSTYYADSVKGRFTISRDNAKNTVYLQMNSLKPEDTAVYYCAARLYGGYDWGQGTQVTVSS	high polyreactivity
QVQLVESGGGLVQAGGSLRLSCAASGRILFSYGAMGWYRQAPGKERELVAAISYSGGSTYYADSVKGRFTISRDNAKNTVYLQMNSLKPEDTAVYYCAASSIVYRHYYWGQGTQVTVSS	high polyreactivity
QVHLVESGGGLVQAGGSLRLSCAASGSIFLAYAMGWYRQAPGKERELVAAISGGGSTYADSVKGRFTISRDNAKNTVYLQMNSLKPEDTAVYYCNADGRGDRFWSNFRFDYWGQGTQVTVSS	low polyreactivity
QVQLVESGGGLVQAGGSLRLSCADSGNIFYKYDMGWYRQAPGKERELVATISSDANTKYADSVKGRFTISRDNAKNTVYLHMNSLKPEDTAVYYCNVKDPVVRGALRDPTEYDSWGQGTQVTVSS	low polyreactivity
QVQLVESGGGLVQAGGSLRFSCAASGRTFTIYAMGWYRQAPGKERELVAAISWSEGSTYYADSVKGRFTISRDNAKNTVYLQMNSLKPEDTAVYYCAREVYGDASAPDMDYWGQGTQVTVSS	low polyreactivity
HVQLVESGAGLVQAAGSLRLSCAASGRPLDSNAMGGYRQAPGKDRELVAAITYSGGSTYYADSVKGRFTISRDNAKNTVYLQMNSLKPEDTAVYYCAKVGRLYRVGGYDYWGQGTQVTVSS	low polyreactivity
QVQLVESGGGLVQAGGSLRLSCADSGRTFYVNAMGWYRQAPGKEREFVAAISRRGGSTYYADSVKGRFTISRDNAKNTVYLQMNSLKPEDTAVYYCIAAYSSRYDYWGQGTQVTVSS	high polyreactivity
QVQLVESGGGLVQAGGSLRLSCAASGSNFRNNAMGWYRQAPGKERELVASISSSGDSTYADSVKGRFTISRDNAMITVYLQMNSLKPEDTAVYYCARDYLSPYAVDYWGQGTQVTVSS	low polyreactivity
QLQLVESGGGLVQAGGSLRLSCAASGISFSSYTMGWYRQAHGKERELVAAITWRGGRTYYADSVKGRFKISRDNAKNTVFLQMHSLKTEDTSVFYCAARDVAGYSTRFYYWGQGTQVTVSS	high polyreactivity
HVQLVESGGGLVQAGGSLRLSCAASGLIFYNYAMGWYRQAPGKERELVAAITGSGGSTYYADSVKGRFTISRDNAKNTVYLQMNSLKPEDTAVYYCAADGIYTFEYWGQGTLVTVSS	low polyreactivity
